Source: article PMC5779224, “Autoinhibition of ankyrin-B/G membrane target bindings by intrinsically disordered segments from the tail regions” (eLife, 2017)

Legend:
[1] = target: T1, AnkG 38–855 (AnkG MBD-AI-c protein; MBD + partial AI-c) (rat, UniProt O70511-1 38-855); test: ITC; VP-ITC MicroCal, 25 °C; proteins in 50 mM Tris-HCl pH 7.8, 1 mM DTT, 1 mM EDTA with 100 mM or 500 mM NaCl as required; who was titrated is not told; conditions: both partners purified
T1 construct: numbers count on: rat AnkG NM_001033984.1 (MBD-UPA); also called AnkG WT; source: E. coli BL21 (DE3), purified (Ni2+-NTA, size exclusion)
T1 sequence (looked up): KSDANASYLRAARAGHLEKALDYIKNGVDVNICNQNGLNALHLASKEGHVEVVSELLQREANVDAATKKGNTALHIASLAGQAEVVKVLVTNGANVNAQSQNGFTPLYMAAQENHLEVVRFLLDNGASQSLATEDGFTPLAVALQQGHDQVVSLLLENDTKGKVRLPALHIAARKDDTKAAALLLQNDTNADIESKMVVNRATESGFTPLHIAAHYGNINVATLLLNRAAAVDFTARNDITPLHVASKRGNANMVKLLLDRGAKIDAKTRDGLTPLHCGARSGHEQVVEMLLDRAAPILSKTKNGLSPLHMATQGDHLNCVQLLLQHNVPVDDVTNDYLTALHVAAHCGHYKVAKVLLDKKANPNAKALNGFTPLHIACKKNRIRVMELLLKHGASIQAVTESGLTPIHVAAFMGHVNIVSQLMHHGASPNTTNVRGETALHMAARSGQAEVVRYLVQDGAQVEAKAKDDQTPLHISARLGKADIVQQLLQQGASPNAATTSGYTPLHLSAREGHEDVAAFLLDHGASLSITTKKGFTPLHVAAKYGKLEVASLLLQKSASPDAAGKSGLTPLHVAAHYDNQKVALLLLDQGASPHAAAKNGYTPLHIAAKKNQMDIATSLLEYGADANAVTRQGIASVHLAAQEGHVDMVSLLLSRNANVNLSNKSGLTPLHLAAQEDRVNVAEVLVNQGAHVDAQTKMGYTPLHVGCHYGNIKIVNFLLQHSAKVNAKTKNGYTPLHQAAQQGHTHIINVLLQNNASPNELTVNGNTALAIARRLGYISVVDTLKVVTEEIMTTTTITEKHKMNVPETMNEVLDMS

[2] = target: T2, AnkG 38–903 (MBD + AI-c + AI-b) (rat, UniProt O70511-1 38-903); test: as above; conditions: both partners purified
T2 construct: numbers count on: rat AnkG NM_001033984.1 (MBD-UPA); also called extended AnkG MBD; source: E. coli BL21 (DE3), purified (Ni2+-NTA, size exclusion)
T2 sequence (looked up): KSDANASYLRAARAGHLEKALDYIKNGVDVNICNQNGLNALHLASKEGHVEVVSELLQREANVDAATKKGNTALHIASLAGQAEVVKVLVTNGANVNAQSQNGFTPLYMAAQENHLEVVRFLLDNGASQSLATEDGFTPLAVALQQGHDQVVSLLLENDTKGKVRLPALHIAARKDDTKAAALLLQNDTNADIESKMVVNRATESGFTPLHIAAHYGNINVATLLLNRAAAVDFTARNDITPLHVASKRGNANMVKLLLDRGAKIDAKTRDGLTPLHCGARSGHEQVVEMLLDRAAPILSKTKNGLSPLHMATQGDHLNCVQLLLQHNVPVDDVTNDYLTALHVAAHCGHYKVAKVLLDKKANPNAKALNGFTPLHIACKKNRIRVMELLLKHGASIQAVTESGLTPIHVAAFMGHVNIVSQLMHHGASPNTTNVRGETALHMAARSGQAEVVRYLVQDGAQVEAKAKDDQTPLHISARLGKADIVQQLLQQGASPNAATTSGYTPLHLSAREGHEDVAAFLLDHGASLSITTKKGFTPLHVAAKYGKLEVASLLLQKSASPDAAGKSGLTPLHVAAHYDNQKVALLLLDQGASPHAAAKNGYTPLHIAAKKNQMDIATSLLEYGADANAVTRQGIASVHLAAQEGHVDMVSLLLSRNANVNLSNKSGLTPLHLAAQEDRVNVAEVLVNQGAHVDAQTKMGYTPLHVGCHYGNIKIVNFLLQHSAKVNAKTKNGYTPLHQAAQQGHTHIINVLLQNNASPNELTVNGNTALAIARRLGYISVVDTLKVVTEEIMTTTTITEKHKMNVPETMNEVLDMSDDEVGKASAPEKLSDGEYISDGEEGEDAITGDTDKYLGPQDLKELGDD

B1: Nav1.2 (aa 1035–1129) (domain or fragment, mouse, UniProt B1AWN6 1035-1129, looked up)
chain: KALDEIKPLEDLNNKKDSCISNHTTIEIGKDLNYLKDGNGTTSGIGSSVEKYVVDESDYMSFINNPSLTVTVPIAVGESDFENLNTEEFSSESDM
notes: source: E. coli BL21 (DE3), purified (Ni2+-NTA, size exclusion)
B1: binds [1]; binds [2].
